The assay deals with T1, full-length SARS-CoV-2 spiketrimer (HP-GSAS-Mut7) (SARS-CoV-2, ancestral (Wuhan-Hu-1), stabilised).
T1 construct: also called full-length spike trimer; full-length spike
The assay is described as follows: BLI. As to conditions: both partners purified.

B1: R125–61 Fab (Fab, V domains shown)
VH: QVQLQESGPGLVKPSETLSLICTVSGGSITRDFWSWVRQPPGKGLEWIGYGYYRGSTNYNPSLESRVTISVDTSKNQFSLKLTSVTAADTAVYYCARETAHNWIDTWGQGILVTVSS
VL: DIVMTQSPESLALSLGERATINCKSSQTVSFTSNNKNYLAWYQQKPRQPPKLLFYWASTRHSGVPDRFSGSGSGTDFTLTINSLQAEDVAVYFCHQYFSTPWTFGQGTKVEI
B1 displayed a Kd of 4.7 nM.

What is called Kd is the concentration at which binding is half-saturated. Low values mean higher affinity, high ones lower affinity.

The record behind these values is article PMC12768131, “Common cold embecovirus imprinting primes broadly neutralizing antibody responses to SARS-CoV-2 S2” (The Journal of experimental medicine, 2025).
